Reference: patent publication US20230348588A1 (published 2023)

Biological target: extracellular domain (ECD) of recombinant human Sortilin with a C-terminal HIS tag (ECD-huSortilin-HIS) (UniProt Q99523 78-755)
Experiment: ELISA

Sequence of extracellular domain (ECD) of recombinant human Sortilin with a C-terminal HIS tag (ECD-huSortilin-HIS) (Q99523 78-755): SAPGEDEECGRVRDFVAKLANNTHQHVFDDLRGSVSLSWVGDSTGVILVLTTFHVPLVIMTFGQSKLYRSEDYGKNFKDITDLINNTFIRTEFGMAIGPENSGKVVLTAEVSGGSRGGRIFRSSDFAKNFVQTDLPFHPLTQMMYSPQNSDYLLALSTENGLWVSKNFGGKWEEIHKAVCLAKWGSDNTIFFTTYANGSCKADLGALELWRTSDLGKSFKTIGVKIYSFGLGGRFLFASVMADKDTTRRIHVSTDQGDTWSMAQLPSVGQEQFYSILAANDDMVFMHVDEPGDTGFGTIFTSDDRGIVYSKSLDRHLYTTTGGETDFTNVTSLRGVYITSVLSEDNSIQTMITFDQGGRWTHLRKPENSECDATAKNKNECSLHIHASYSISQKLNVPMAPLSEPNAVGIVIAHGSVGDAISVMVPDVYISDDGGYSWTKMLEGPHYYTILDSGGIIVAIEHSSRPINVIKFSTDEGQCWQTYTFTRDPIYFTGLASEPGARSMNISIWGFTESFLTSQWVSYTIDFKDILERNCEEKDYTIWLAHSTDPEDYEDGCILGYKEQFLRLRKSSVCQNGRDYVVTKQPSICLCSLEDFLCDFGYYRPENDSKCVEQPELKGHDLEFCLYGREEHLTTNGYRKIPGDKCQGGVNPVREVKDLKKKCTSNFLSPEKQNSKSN

EC50: 5.8 nM
B1: mouse monoclonal antibody 4N2 (antibody, V domains shown)
VH: EVKLVESGGGLVKPGGSLKLSCGASGFTFSNYVMSWVRQTPERRLEWVATISGGGRYSYYPDSVKGRFTISRDNAKNNLYLQMSSLRSEDTALYYCGRQDDYDSFPYCGQGTLVTVSV
VL: DILLTQSPAILSVSLGERVSFSCRASQSIGTSIHWFQLRTNGSPRLLIKYASEPISGIPSRFSGSGSGTDFTLSINSVESEDIADYFCQQSKSWPITFGTGTKLELK
